Test results from patent US20210000909A1.

Target: PDZ1/2 domain (UniProt P78352)
Sequence (P78352 61-249 limits assumed): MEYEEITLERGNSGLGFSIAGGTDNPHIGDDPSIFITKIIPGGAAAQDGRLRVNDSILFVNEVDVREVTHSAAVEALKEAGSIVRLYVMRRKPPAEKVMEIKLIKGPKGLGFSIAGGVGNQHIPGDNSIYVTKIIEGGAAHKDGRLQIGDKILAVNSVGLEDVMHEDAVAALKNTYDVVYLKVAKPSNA

## control chimeric peptide NA-1
  Kd: 75.3 nM
